The results in this text go back to US20040191815.

Series [1] concerns the target MafG homodimer (UniProt O15525). The series can be described thus: EMSA. As to conditions: gel mobility shift assay comparison, probe details not given. In general terms: Mobility shift assays separate free from complexed probe on a gel.
The target is the same in series [2]. The series can be described thus: SPR. As to conditions: pH 7.9; for Kd: 20 mM Hepes, 200 mM NaCl, 4 mM MgCl2, 1 mM EDTA, BSA.
Setting [3] is: 5' thiol on anchor strand (immobilized).

MafG homodimer, sequence (O15525 whole entry): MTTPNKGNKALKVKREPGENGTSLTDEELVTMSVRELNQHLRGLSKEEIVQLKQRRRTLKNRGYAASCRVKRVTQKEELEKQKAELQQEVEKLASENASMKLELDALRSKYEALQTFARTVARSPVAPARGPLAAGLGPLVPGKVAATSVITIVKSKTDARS

Consider “TTTTTTTTTTTTTTTCGGAATTGCTGATTCAGCCTTACTC (double strand) [hOPSIN]”, for which the Kd (usually the equilibrium constant for the complex coming apart) with MafG homodimer [1] (5' thiol on anchor strand (immobilized) [variable site 22-34 (TGCTGATTCAGCC), 5' thiol linker at 1 left out]) is 252 nM; with MafG homodimer [2] (5' thiol on anchor strand (immobilized) [variable site 22-34 (TGCTGATTCAGCC), 5' thiol linker at 1 left out], listing SEQ 7 has 14 nt, Table 2 prints 13 nt), 7.67 nM.

With “TTTTTTTTTTTTTTTCGGAATAGTTGACTCAGCATTACTC (double strand) [hNQO1m]”, the Kd in the series with MafG homodimer [1] (setting [3]) turned out to be 273 nM; in the series with MafG homodimer [2] (setting [3]) it was 8.58 nM.

For “TTTTTTTTTTTTTTTCGGAATTGCTGACTCAGCATTACTC (double strand) [MARE 25]”, the Kd is 249 nM with MafG homodimer [1] (setting [3]) and 2.5 nM with MafG homodimer [2] (5' thiol on anchor strand (immobilized), SPR imaging). In the series with MafG homodimer [2] (5' thiol on anchor strand (immobilized), 10 mM Hepes, 300 mM NaCl, 4 mM Mg, 1 mM EDTA, ka 2.22e5 M-1s-1, kd 8.80e-4 s-1, Example 1 sequence printed only in figure), this sequence displayed a Ka of 2.52e+08 M⁻¹.
